These results are taken from paper PMC5053586 (Cell Cycle, 2016).

Assay [1] has as its target T1, TbERK8 (extracellular-signal regulated kinase 8 homolog, Tb927.10.5140) (Trypanosoma brucei, UniProt Q38B88).
T1 sequence (Q38B88 1-442): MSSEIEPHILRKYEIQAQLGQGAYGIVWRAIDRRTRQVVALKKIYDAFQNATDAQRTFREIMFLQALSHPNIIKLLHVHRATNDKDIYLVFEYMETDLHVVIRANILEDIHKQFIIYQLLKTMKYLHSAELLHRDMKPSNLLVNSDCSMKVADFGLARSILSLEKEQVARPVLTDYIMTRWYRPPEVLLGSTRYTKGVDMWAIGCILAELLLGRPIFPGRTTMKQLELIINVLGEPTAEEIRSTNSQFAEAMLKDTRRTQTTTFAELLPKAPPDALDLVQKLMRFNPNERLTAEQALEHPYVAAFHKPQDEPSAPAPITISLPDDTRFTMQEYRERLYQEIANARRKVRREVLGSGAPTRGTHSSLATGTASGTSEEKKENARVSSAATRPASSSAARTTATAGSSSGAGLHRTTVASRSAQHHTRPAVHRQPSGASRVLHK
Nature of the assay: […]-ATP kinase assay with MBP substrate, eight-point dose response. The class given is biochemical.

Assay [2] deals with T1, TbERK8 (extracellular-signal regulated kinase 8 homolog, Tb927.10.5140). Nature of the assay: HTRF kinase assay. The class given is biochemical. In general terms: TR-FRET usually uses a lanthanide donor and a delayed reading to cut background.
Assay [3] has as its target GST-TbERK8-PIP-box fusion protein (GSTtbE8-PIP) (Trypanosoma brucei). Nature of the assay: pull-down.
Assay [4] deals with GST-bound canonical PIP-box from T. brucei aurora kinase 1 (GSTtbAUK1-PIP) (Trypanosoma brucei). Nature of the assay: pull-down.
For assay [5], the target named is GST-bound canonical PIP-box from T. brucei paraflagellar complex TbPFC19 (GSTtbPFC-PIP) (Trypanosoma brucei). Nature of the assay: pull-down.

What is called IC50 is the concentration at which inhibition is half-maximal. A low value points to inhibition by little substance. Consider `Cn1cc(C2=C(c3cn(CCCSC(=N)N)c4ccccc34)C(=O)NC2=O)c2ccccc21` [Ro318220], for which the half-maximal inhibitory concentration (IC50) in assay [1] turned out to be 1.4 µM.

`COc1ccccc1C(=O)c1cnc(NC2CCN(C(=O)Nc3ccccc3)CC2)nc1N` [SCYX5070] yielded an IC50 in assay [2] of around 1600 µM.

Regarding “hemagglutinin-tagged TbPCNA (wt-TbPCNAHA) (natural protein)”, in assay [3], the fold pulled down against GST-Ctrl beads turned out to be 5 fold.

With “recombinant wt-TbPCNA6H (natural protein)”, the fold pulled down against the TbERK8 PIP-box motif in assay [4] is 5 fold; in assay [5], 3 fold.
